“And” between values parts separate entries of the source, which are not always exact repeats. Equal values may be shown once.

From article doi:10.1101/2021.04.18.440036 come the findings set out here.

For this assay, the target named is protective antigen (PA) prepore (Bacillus anthracis). Nature of the assay: cryo-EM structure.

The stoichiometry N is a count of units in the complex or per binding partner. Consider “protective antigen (PA) prepore (complex)”, for which the stoichiometry N is 7 and 8.
